Assay results: US9932390 (SHRINERS HOSPITAL FOR CHILDREN, dated 2018)
Each block holds one binder with its values, some of them ahead of it. Positions of bridges follow the written chain, without caps; N, C: chain ends. Chains are numbered I, II in the order given. No end group written: not given here.

Experiments:
[1] = target: T1, α2NC2 (NC2 domain of the human collagen IX α2 chain) (human); experiment: CD at 222 nm, thermal transition at 1.87 µM complex, pH 4.5, bimolecular two-state fit
T1 construct: Expressed as the Trx_α2NC2 fusion and cleaved with thrombin; also called U2
T1 peptide: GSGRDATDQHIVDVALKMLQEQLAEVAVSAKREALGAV
Method: (§1) FIG. 9. Thermal transitions of the NC2-containing complexes. A, Thermal transition curves of α123NC2-(GPP)_5CC were recorded in 50 mM sodium acetate buffer, pH 4.5, supplemented with 0M (green circles), 1M (red circles for heating and blue circles for cooling), and 2M (cyan circles) guanidine hydrochloride using 7 μM complex concentrations and a 1-mm path length quartz cuvette. The change in collagen triple helical and α-helical contents was monitored at 230 nm with a scan rate of 1° C./min. […] The first transition followed by the increase of the CD signal is associated with the unfolding of the collagen triple helix, whereas the second transition is associated with the unfolding of the NC2 domain. […] The change in α-helical content was monitored at 222 nm with a scan rate of 0.25° C./min. The curves were globally fitted (white lines) as described herein.
(§2) Since the α1NC2 chain is disulfide-linked to the α3NC2 chain, only two products dissociates from the complex upon denaturation and the folding reaction should be considered as bimolecular. According to this and other assumptions (see 1.1.-1.10., above), two transitions using a 10-fold difference in concentrations of the complex were separately globally fitted and yielded similar values of the standard enthalpy, $\Delta H^0$, and the standard entropy, $\Delta S^0$.

[2] = target: T1, α2NC2 (NC2 domain of the human collagen …); experiment: CD at 222 nm, thermal transition at 18.7 µM complex, pH 4.5, bimolecular two-state fit
Method: as §1, §2

α3NC2-(GPP)5CC = target: T2, α3NC2-(GPP)5CC (human, not fully specified; chain 1: Cys60 and Cys61 (collagen III cystine knot) form interchain disulfides in the oxidized trimer. Cys15 is also counted as oxidized in the calculated trimer mass.); experiment: oxidative folding of the three Trx fusions, non-reducing SDS-PAGE
T2 construct: Mixed and reoxidized as a His-tagged thioredoxin fusion, then characterized after thrombin cleavage as part of α123NC2-(GPP)5CC; also called Trx_α3NC2-(GPP)5CC (before thrombin cleavage)
T2 peptide: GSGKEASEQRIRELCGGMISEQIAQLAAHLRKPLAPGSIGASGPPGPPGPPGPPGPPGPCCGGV
Method: Initially the purified constructs either with or without collagenous part were folded under the same oxidative conditions. The three chains of approximately equal concentrations were mixed, diluted with water and the buffer was adjusted to 100 mM Tris/HCl buffer, pH 8.6, containing 15 mM Na-phosphate, 150 mM NaCl, 150 mM imidazol, 10 mM reduced glutathione, 1 mM oxidized glutathione at 25° C. Final concentration of each chain was ~10 µM. The solution was sequentially incubated at 37° C. for 24 hours, at 30° C. for 24 hours, 25° C. for 24 hours and the pH value was periodically checked and adjusted to be not lower than 8.3. Finally, the solution was extensively dialyzed against 50 mM Tris/HCl buffer, pH 8, containing 150 mM NaCl, at room temperature to remove imidazol and reducing agents.
1.11.3. Results: Initial Purification of Fusion Proteins Trx_α1NC2-(GPP)_5C, Trx_α2NC2-(GPP)_5CC and Trx_α3NC2-(GPP)5CC and their Reoxidation Soluble fractions of cell lysates were separately purified over the Ni-NTA resin and analyzed on a gel (FIG. 2A, lanes 1-3). In addition to bands corresponding to monomeric species around 20 kDa, dimeric, trimeric and ladders of higher multimers were observed, indicating formation of multiple intermolecular disulfide bonds, presumably due to misfolding. […]

ΔH^0 (standard enthalpy of U13+U2 to N) [1]: -200 kJ/(mol complex)
ΔS^0 (standard entropy of U13+U2 to N) [1]: -500 J/(mol complex K)
ΔH^0 (standard enthalpy of U13+U2 to N) [2]: -203 kJ/(mol complex)
ΔS^0 (standard entropy of U13+U2 to N) [2]: -502 J/(mol complex K)
B1: disulfide-bonded α1NC2-α3NC2 (NC2 domains of the human collagen IX α1 and α3 chains, linked by a disulfide) (other)
chain 1: GSPTDQHIKQVCMRVIQEHFAEMAASLKRPDS
chain 2: GSASEQRIRELCGGMISEQIAQLAAHLRKPLAP
modifications: disulfide I:12-II:12 (inferred)
notes: Part of the α123NC2 complex after removal of His-tagged thioredoxin; also called α1-α3; U13
Tm (midpoint of the coupled unfolding and dissociation) [1]: 51.2 ° C.
Tm (midpoint of the coupled unfolding and dissociation) [2]: 65.8 ° C.

binding result (α3NC2-(GPP)5CC): binds
B2: α1NC2-(GPP)5CC (peptide)
peptide: GSGYPGRAPTDQHIKQVCMRVIQEHFAEMAASLKRPDSGATGASGPPGPPGPPGPPGPPGPCCGGV
modifications: not fully specified; also: interchain disulfides via Cys62 and Cys63 in the trimer with other chains
notes: Mixed and reoxidized as a His-tagged thioredoxin fusion, then characterized after thrombin cleavage as part of α123NC2-(GPP)5CC; also called Trx_α1NC2-(GPP)5CC (before thrombin cleavage)
